# Assay results as given in the DeepSol protein solubility set.
# Assay: soluble on expression in E. coli; label from the status in PepcDB or PDB records
row,Sequence,soluble on expression in E. coli
1,MDDITDGLRYRISNVIHVSPELTYDGRIMSAGKLLKLMDDLGGIICLRYLDHNSSNLYDNSFNAVVTVAVKGLAFYSPIRLNDIILIRAGLVYVGNTSADILINVVREDLNGAKEHVATAYFTYVRVDKDGKPIKIP,soluble
2,MDDLMKDRIDLLIDYIMKHCLWQFHSRSWDRKRQNEGILTKTTQLLCDEPVDLGTPADKCYWVDAVCLADAYKSRYPWLKTMDKDDIKALMGALHERLDHLTITGSLNLELTDQHYLEHHHHHH,soluble
3,MDEEMLIPEEEYQKSGVHIGTQVKSSDMKPYIFKIRNDGLYILDVKKTNSKLIVAGKMLARFEPQDILVVAQRQYAFRPVAKFAEVTGATAITGRFNPGTLTNPSLKFYKEVKVIIVTDPLADVQAMKEAVKIGIPIIALCDANNKTDFVDLIIPTNNKGRRSLAVIYWLLAREILKNRGTITSYDQFKYTIDDFEAQI,not soluble
4,MDESMRHDIALFRYGLIAPLVNGQVEPKAYLNEVGGRVHSIPHQGDKPIAAKTILDWCARYKKGGFDALKPKRRSDRGRSRRLSPDDEDHILALRKEHPTMPVTLFYEQLTKQGDIPTTLSYFTIYRLLKKHNLVGKEILPMPERKRFAYDQINELWQGDLSHGPTIRVHGKAQKTFLIAYIDDCSRLVPYAQFFPSEKFDGLRIVTKEAVLRCGKPKRIYSDNGKIYRSEVLQYACAEMGITLIHTQPYDPQSKGKIERFFRTVQTRFYPLLELNPPKSLDELNERFWKWLEEEYHRKPHASLDGKTPHEVFQSQVERVVWIEDIDWLDAIFLKREHRKVKADGTITLNKQLYEVPPRFIGQSIELRYDERGVYVYEDGKRVAEAIRVRLEDNAYVKRHRSPFAAVSAKEGEQDV,not soluble
5,MDFDNFPIEQLSHLISFDIEWTETSVADAIKIKDIILRSPHFESASILSHCVNKIKPEVLKVFHPNYIATDRDYNEMLELRNDYFRSIVYAGGSSIDIYNVNLEDPDDFE,not soluble
6,MDFKAKLLAEMAKKRKAVSGMEVKEGNAKFVKGADLEMKRNQEYERKQQEIASKKRKVDDEILQESSSRTKPAPVENESEIDEKTPMSEIQTRLRQRNHPIMLFGETDIDVRKRLHQLELAQPDLNEGWENELQTAMKVIGKEMDKAVVEGTADSATRHDIALPQGYEEDNWKNIEHNSTLLSVDDDLKRDCDIILSICRYILARWAKDLNDRPLDVKKTAQGMHEAAHHKQTMMHLKSLMTSMERYNCNNDIRHHLAKICRLLVIDRNYLEANNAYMEMAIGNAPWPVGVTRSGIHQRPGSAKSYVSNIAHVLNDETQRKYIQAFKRLMTKMQEYFPTDPSKSVEFVKKAV,not soluble
7,MDFSLTEEQELLLASIRELITTNFPEEYFRTCDQNGTYPREFMRALADNGISMLGVPEEFGGIPADYVTQMLALMEVSKCGAPAFLITNGQCIHSMRRFGSAEQLRKTAESTLETGDPAYALALTEPGAGSDNNSATTTYTRKNGKVYINGQKTFITGAKEYPYMLVLARDPQPKDPKKAFTLWWVDSSKPGIKINPLHKIGWHMLSTCEVYLDNVEVEESDMVGEEGMGFLNVMYNFEMERLINAARSTGFAECAFEDAARYANQRIAFGKPIGHNQMIQEKLALMAIKIDNMRNMVLKVAWQADQHQSLRTSAALAKLYCARTAMEVIDDAIQIMGGLGYTDEARVSRFWRDVRCERIGGGTDEIMIYVAGRQILKDYQNK,soluble
8,MDGSVVRHEERLNVGKERVESGRMRIRKHVVHDTETVEVPVEREEIHVERVPLDEKVAADDAKLSEGTQDIVTHEERPVVNKETVGVEKIKIGKEAVQDTETVSGKVAKEQIDIDNAKHTKLEHHHHHH,not soluble
9,MDHIELRKKIGQAIRTARIRRGLVMRDLAEAGGVSTGAVGNWERGANAIAMEHLQAISQKLRIDPVALSNGSLRYLDEEEALADAEQVTDFGPAPTGPMDVEVLGVAVGGDDGDFTLNGEVSGYVRRPPGIAHLRKVFALHVLSDSMIPRYDPGELIYVGGREAVAGDHVVIEMFPDEGATVGKAYVKKLKGRTKGAIVCEQYNPPKELQFDQYAIKNMWRIIPLRELLGY,not soluble
10,MDHLKHLQQLQNIERIVLSGIVLANHKIEEVHSVLEPSDFYYPPNGLFFEIALKLHEEDCPIDENFIRQKMPKDKQIKEEDLVAIFAASPIDNIEAYVEEIKNASIKRKLFGLANTIREQAHH,soluble
11,MDICDISASQLATSPPPRTAIDFNSSIEESPVKRVKFSPELTKSFEETLSPTVTLVLRNNEEVIFDRYLLSFYSNYFRVLFSSKFRDSNSTTHRIRLISASDLHFLLTIPKAFEQGIKPNITLQKAIELLEPAAFLQMSIALDYISDIICKNLTHENIIKIFRLALLYHTTLAVRVWRSMVRKFQTLFATNVYLSLKENELIGLLTDKHLNLKSEDETTVVVNWIKHNSPLQSDRLTQFAQRNFSRRPQPDATKYEVIRTRQPMDAIVCFGGWASRGVAQKIEVCNTRSDRWQTCNFNYDIPNIHRAYHGIEVVEDKLIVYGGFDGIKQFQTTVLFDLSTKEWRRGANMNDKRCYVTSARVNDSYGRPLVFACGGMNGVSRLKTAEMYDYRADQWTEVANMTQMRSDGAVVTIDNKIVAIGGFDGRNIHQGGEVYDPVLDLWHPLSSNMRTRRTGCTAVSIMNQVCMIIGGFNGNRRLDSAEIYDMREGLWHPEPTLQTARSNFSACQMDTCYVYVAGGFDGQTTTKESERLDLRSKMWQALPDMAEAKSALRMVTLSDHPFLDELFDIPDDTGIVTSW,not soluble
12,MDIHVLSYGLGNQLSQYAFFINRRQLMQRAYAFYAFKQHNGYELDRIFGLKEGLPWYLQFVRVVFRLGISRRFYSKRTADFVLSLFRIKVIDEAYNYEFDPSLLKPWFGIRILYGGWHDSRYFHPSEAAVRTAFSFPPLDDVNDAILQQIDAVYGVSIHVRRGDYLKGINSNLFGGIATLEYYRNAIGWAITYCKHRSLEIKFYVFSDDIDWCKQNLGLRDAVYVSGNSKTDSWKDILLMSHCRANIIANSTFSWWAAWLNQQPNKVVICPTKFINTDSPNQTIYPAAWHQIEGLEHHHHHH,not soluble
13,MDIKHEMIYREDDVLLVKSEPQLHSPCATGSNGLPAGAGSNLLCASNGLVTTLASGSSLNGLTNNVPSNGLSSSGPFSSIGGGVSASKRQRTDDWLSSPSGNVPPLTPSPGPPSHPYTVISNGYSSPMSSGSYDPYSPNGKIGREDLSPSSLNGYSADSCDSKKKKGPTPRQQEELCLVCGDRASGYHYNALTCEGCKGFFRRSITKNAVYQCKYGNNCEIDMYMRRKCQECRLKKCLSVGMRPECVVPEVQCAVKRKEKKAQKEKDKPNSSTNGSPDVIKVEPELSDSEKTLCNGSKGISPEQEELIHRLVYFQNEYEHPSEEDVKRIINQPMDGEDQCDVRFRHITEITILTVQLIVEFAKRLPGFDKLLREDQIALLKACSSEVMMFRMARRYDVQTDSILFVNNQPYSRDSYNLAGMGETIEDLLHFCRTMYSMRVDNAEYALLTAIVIFSERPALIEGWKVEKIQEIYLEALRAYVDNRRKPKPGTIFAKLLSVLTELRTLGNQNSEMCFSLKLKNKKLPPFLAEIWDVDLKT,soluble
14,MDILKLSDFIGNTLIVSLTEDRILVGSLVAVDAQMNLLLDHVEERMGSSSRMMGLVSVPRRSVKTIMIDKPVLQELTANKVELMANIV,not soluble
15,MDILKQLQSSTNLTPNVLARLAIALSLLSKEPIESFDSDTNGLEFNRNTLTGEYDFVYKALIAQQLGRPITDDEYFPSLIKKHLDRGAKWLENEYKYAGNYEKLIKGLAHFELEMIR,not soluble
16,MDILLMDTIQQEVLALFREEIPGYLDSNWKEIPLELDSDLFEAPGDDLHEALDKFEKKFNVDLSQVKWSCYFPWENTPLLTRWFKLKREDVERTRKPLTIRMFSESAKAGKWLYD,not soluble
17,MDITELLAFSAKQGASDLHLSAGLPPMIRVDGDVRRINLPPLEHKQVHALIYDIMNDKQRKDFEEFLETDFSFEVPGVARFRVNAFNQNRGAGAVFRTIPSKVLTMEELGMGEVFKRVSDVPRGLVLVTGPTGSGKSTTLAAMLDYLNNTKYHHILTIEDPIEFVHESKKCLVNQREVHRDTLGFSEALRSALREDPDIILVGEMRDLETIRLALTAAETGHLVFGTLHTTSAAKTIDRVVDVFPAEEKAMVRSMLSESLQSVISQTLIKKIGGGRVAAHEIMIGTPAIRNLIREDKVAQMYSAIQTGGSLGMQTLDMCLKGLVAKGLISRENAREKAKIPENFGAAALEHHHHHH,soluble
18,MDIYVCTVCGYEYDPAFEDLPDDWACPVCGASKDAFEKQ,soluble
19,MDKDMQLIRGLHNANRVLQGCALTIGNFDGVHLGHQTVLRHLRQKADELNLPMAVLLFESQPREYFMGKNAPARLMRLRDKIYYLEKAKVDVVIVAKFDRTFAEQLADVFIEQTLVNHLHVKFLSIGDDFKFGSKRQGNFAMLQAASKRFGFIVEDNRSFCLDAQRISSTAIREALANDDLQLAENLLGKPYRIFGRVIHGNKLGRTIGFPTANIRLHRQVNPIKGVYAVKVRLKSGEIFNGVANMGKRPTINGLMQLLEVHLFDFSQNIYGQMVEVEFCHKIRNEIKFPSFDDLKVQIEKDVETAKAFFNSLEHHHHHH,not soluble
20,MDKIEVRGARTHNLKNINLVIPRDKLIVVTGLSGSGKSSLAFDTLYAEGQRRYVESLSAYARQFLSLMEKPDVDHIEGLSPAISIEQKSTSHNPRSTVGTITEIHDYLRLLFARVGEPRCPDHDVPLAAQTVSQMVDNVLSQPEGKRLMLLAPIIKERKGEHTKTLENLASQGYIRARIDGEVCDLSDPPKLELQKKHTIEVVVDRFKVRDDLTQRLAESFETALELSGGTAVVADMDDPKAEELLFSANFACPICGYSMRELEPRLFSFNNPAGACPTCDGLGVQQYFDPDRVIQNPELSLAGGAIRGWDRRNFYYFQMLKSLADHYKFDVEAPWGSLSANVHKVVLYGSGKENIEFKYMNDRGDTSIRRHPFEGVLHNMERRYKETESSAVREELAKFISNRPCASCEGTRLRREARHVYVENTPLPAISDMSIGHAMEFFNNLKLAGQRAKIAEKILKEIGDRLKFLVNVGLNYLTLSRSAETLSGGEAQRIRLASQIGAGLVGVMYVLDEPSIGLHQRDNERLLGTLIHLRDLGNTVIVVEHDEDAIRAADHVIDIGPGAGVHGGEVVAEGPLEAIMAVPESLTGQYMSGKRKIEVPKKRVPANPEKVLKLTGARGNNLKDVTLTLPVGLFTCITGVSGSGKSTLINDTLFPIAQRQLNGATIAEPAPYRDIQGLEHFDKVIDIDQSPIGRTPRSNPATYTGVFTPVRELFAGVPESRARGYTPGRFSFNVRGGRCEACQGDGVIKVEMHFLPDIYVPCDQCKGKRYNRETLEIKYKGKTIHEVLDMTIEEAREFFDAVPALARKLQTLMDVGLTYIRLGQSATTLSGGEAQRVKLARELSKRGTGQTLYILDEPTTGLHFADIQQLLDVLHKLRDQGNTIVVIEHNLDVIKTADWIVDLGPEGGSGGGEILVSGTPETVAECEASHTARFLKPML,soluble
21,MDKQLNDAPCGFLALSEEGSIIAANRTLIKILDYEPEQVIGQHMNMMLTIPAQLFCQLYFFPLLKLEHHIEEIYISLKARDGEEIPVLINAIARHDSGASVFDCVL,not soluble
22,MDLEFGRFPIFSILEDMLEAPEEQTEKTRNNPSRAYMRDAKAMAATPADVIEHPDAYVFAVDMPGIKGDEIQVQIENENVLVVSGKRQRDNKENEGVKFVRMERRMGKFMRKFQLPDNADLEKISAACNDGVLKVTIPKLPPPEPKKPKTIQVQVA,soluble
